The numbers were not newly measured in patent publication US20090215646A1, “SYSTEM AND METHOD OF ANALYTE DETECTION USING DIFFERENTIAL RECEPTORS” (The Board of Regents of the University of Texas Sy, priority 2005, published 2009), which cites them from elsewhere.

The chains are these.
B1: Ovalbumin: glycoprotein analyte obtained commercially (protein, UniProt P01012 2-386, looked up)
Ovalbumin: GSIGAASMEFCFDVFKELKVHHANENIFYCPIAIMSALAMVYLGAKDSTRTQINKVVRFDKLPGFGDSIEAQCGTSVNVHSSLRDILNQITKPNDVYSFSLASRLYAEERYPILPEYLQCVKELYRGGLEPINFQTAADQARELINSWVESQTNGIIRNVLQPSSVDSQTAMVLVNAIVFKGLWEKAFKDEDTQAMPFRVTEQESKPVQMMYQIGLFRVASMASEKMKILELPFASGTMSMLVLLPDEVSGLEQLESIINFEKLTEWTSSNVMEERKIKVYLPRMKMEEKYNLTSVLMAMGITDVFSSSANLSGISSAESLKISQAVHAAHAEINEAGREVVGSAEAGVDAASVSEEFRADHPFLFCIKHIATNAVLFFGRCVSP

The conditions of the series: isoelectric point.
For “Fetuin: glycoprotein analyte obtained commercially”, the pI is 4.5-4.9.
“Lysozyme: protein analyte obtained commercially”: the pI is reported as 9.6-11.
Take B1: the pI was 4.6.
